Measured values taken from patent US6541212.

Molecular target: T1, recombinant secreted soluble PSCA with a C-terminal 6XHis and MYC tag (human) (UniProt O43653)
T1 sequence: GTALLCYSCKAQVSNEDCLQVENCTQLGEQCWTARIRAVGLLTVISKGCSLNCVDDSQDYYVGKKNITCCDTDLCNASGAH
Assay: SPR (BIAcore), recombinant PSCA immobilized at 30 RU, mAb in solution

B1: anti-PSCA monoclonal antibody 1G8 (antibody, part only; not given: light chain, V domains shown, part only)
VH: CFFLMAVVIGVNSEVQLQQSGAELVRSGASVKLSCTASGFNIKDYYIHWVNQRPDQGLEWIGWIDPENGDTEFVPKFQGKATMTADIFSNTAYLHLSSLTSEDTAVYYCKTGGFWGQGTLVTVSAAKTTPPSVYPL
Kd: 1 nM
kon: 168000 M⁻¹ s⁻¹
